Substrate in series [1]: O=C(O)C1OC(Oc2ccc([C@@H]3[C@@H](CC[C@H](O)c4ccc(F)cc4)C(=O)N3c3ccc(F)cc3)cc2)C(O)C(O)C1O
As to the kind of experiment: Uptake of EZE-Ph into OAT3-transfected HEK293 cells. The settings on record: other: OAT3 HEK293, uptake time 5 min; 37.0 °C. The class given is in vitro ADME, human. As to the method: (§1) The kinetic parameters and the half inhibitory concentration (IC50) were calculated using GraphPad Prism. […] The intrinsic clearance (CLint) was calculated as CLint = Vmax/Km.

Substrate in series [2]: O=C(O)C1OC(Oc2ccc([C@@H]3[C@@H](CC[C@H](O)c4ccc(F)cc4)C(=O)N3c3ccc(F)cc3)cc2)C(O)C(O)C1O
As to the kind of experiment: Uptake of EZE-Ph into OATP2B1-transfected HEK293 cells. The class given is in vitro ADME, human. As to conditions: other: OATP2B1 HEK293, uptake time 5 min; 37.0 °C. As to the method: as §1

B1: OAT3 (Homo sapiens) (protein)
chain: MTFSEILDRVGSMGHFQFLHVAILGLPILNMANHNLLQIFTAATPVHHCRPPHNASTGPWVLPMGPNGKPERCLRFVHPPNASLPNDTQRAMEPCLDGWVYNSTKDSIVTEWDLVCNSNKLKEMAQSIFMAGILIGGLVLGDLSDRFGRRPILTCSYLLLAASGSGAAFSPTFPIYMVFRFLCGFGISGITLSTVILNVEWVPTRMRAIMSTALGYCYTFGQFILPGLAYAIPQWRWLQLTVSIPFFVFFLSSWWTPESIRWLVLSGKSSKALKILRRVAVFNGKKEEGERLSLEELKLNLQKEISLAKAKYTASDLFRIPMLRRMTFCLSLAWFATGFAYYSLAMGVEEFGVNLYILQIIFGGVDVPAKFITILSLSYLGRHTTQAAALLLAGGAILALTFVPLDLQTVRTVLAVFGKGCLSSSFSCLFLYTSELYPTVIRQTGMGVSNLWTRVGSMVSPLVKITGEVQPFIPNIIYGITALLGGSAALFLPETLNQPLPETIEDLENWSLRAKKPKQEPEVEKASQRIPLQPHGPGLGSS
notes: host or cells: HEK293
Regarding B1, in series [1], the Km turned out to be 166 µM, the Vmax was determined as 0.000306 µmol/min/mg and the Vmax/Km amounted to 1.84 µL/min/mg.

B2: OATP2B1 (Homo sapiens) (protein)
chain: MGPRIGPAGEVPQVPDKETKATMGTENTPGGKASPDPQDVRPSVFHNIKLFVLCHSLLQLAQLMISGYLKSSISTVEKRFGLSSQTSGLLASFNEVGNTALIVFVSYFGSRVHRPRMIGYGAILVALAGLLMTLPHFISEPYRYDNTSPEDMPQDFKASLCLPTTSAPASAPSNGNCSSYTETQHLSVVGIMFVAQTLLGVGGVPIQPFGISYIDDFAHNSNSPLYLGILFAVTMMGPGLAFGLGSLMLRLYVDINQMPEGGISLTIKDPRWVGAWWLGFLIAAGAVALAAIPYFFFPKEMPKEKRELQFRRKVLAVTDSPARKGKDSPSKQSPGESTKKQDGLVQIAPNLTVIQFIKVFPRVLLQTLRHPIFLLVVLSQVCLSSMAAGMATFLPKFLERQFSITASYANLLIGCLSFPSVIVGIVVGGVLVKRLHLGPVGCGALCLLGMLLCLFFSLPLFFIGCSSHQIAGITHQTSAHPGLELSPSCMEACSCPLDGFNPVCDPSTRVEYITPCHAGCSSWVVQDALDNSQVFYTNCSCVVEGNPVLAGSCDSTCSHLVVPFLLLVSLGSALACLTHTPSFMLILRGVKKEDKTLAVGIQFMFLRILAWMPSPVIHGSAIDTTCVHWALSCGRRAVCRYYNNDLLRNRFIGLQFFFKTGSVICFALVLAVLRQQDKEARTKESRSSPAVEQQLLVSGPGKKPEDSRV
notes: host or cells: HEK293
In the case of B2, in series [2], the Km came out at 119 µM, the Vmax was 6.69e-05 µmol/min/mg and the Vmax/Km was determined as 0.56 µL/min/mg.

Values taken from publication PMC9785202, “Changes in Disposition of Ezetimibe and Its Active Metabolites Induced by Impaired Hepatic Function: The Influence of Enzyme and Transporter Activities” (Pharmaceutics, 2022).
